Assay results reported in patent publication US6565869 (ISTITUTO DI RICERCHE DI BIOLOGIA MOLECOLARE P ANGELETTI S P …, dated 2003).
Changes are numbered by the printed parent chain.

T1: CNTF receptor-α (CNTFRα) (UniProt P26992 23-342, limits assumed)
T1 construct: also called CNTFRa; CNTF a-receptor
T1 sequence (looked up): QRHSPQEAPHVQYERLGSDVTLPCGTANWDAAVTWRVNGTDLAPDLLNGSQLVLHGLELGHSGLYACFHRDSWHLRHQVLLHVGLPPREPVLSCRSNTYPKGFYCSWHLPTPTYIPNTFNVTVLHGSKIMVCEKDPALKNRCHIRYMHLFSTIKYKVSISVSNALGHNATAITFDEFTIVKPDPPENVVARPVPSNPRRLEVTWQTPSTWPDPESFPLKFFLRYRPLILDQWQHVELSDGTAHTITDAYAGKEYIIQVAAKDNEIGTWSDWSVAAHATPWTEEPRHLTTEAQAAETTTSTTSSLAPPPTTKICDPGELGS

B1: hCNTF (human ciliary neurotrophic factor), wild type (ligand)
chain: MAFTEHSPLTPHRRDLCSRSIWLARKIRSDLTALTESYVKHQGLNKNINLDSADGMPVASTDQWSELTEAERLQENLQAYRTFHVLLARLLEDQQVHFTPTEGDFHQAIHTLLLQVAAFAYQIEELMILLEYKIPRNEADGMPINVGDGGLFEKKLWGLKVLQELSQWTVRSIHDLRFISSHQTGIPARGSHYIANNKKM
notes: also called human CNTF
B2: (Ser166Asn/Gln167Ala) hCNTF (ligand)
chain: B1 chain with S166N, Q167A
B3: (Ser166His/Gln167Ala) hCNTF (ligand)
chain: B1 chain with S166H, Q167A
B4: (Ser166Ala/Gln167Ala) hCNTF (ligand)
chain: B1 chain with S166A, Q167A
B5: (Asp30Gln/Ser166Asp/Gln167His) hCNTF (ligand)
chain: B1 chain with D30Q, S166D, Q167H
B6: (Ser166Asp/Gln167His) hCNTF (ligand)
chain: B1 chain with S166D, Q167H
notes: also called DH-CNTF; DH-hCNTF
B7: (Gln63Arg) hCNTF (ligand)
chain: B1 chain with Q63R
B8: (Gln167Tyr) hCNTF (ligand)
chain: B1 chain with Q167Y
B9: (Val170Arg/His174Ala) hCNTF (ligand)
chain: B1 chain with V170R, H174A
B10: (Ser166Asp/Gln167Ala/Arg177Phe) hCNTF (ligand)
chain: B1 chain with S166D, Q167A, R177F
B11: (Lys155Ala/Ser166Asp/Gln167His) hCNTF (ligand)
chain: B1 chain with K155A, S166D, Q167H
B12: (Val161Leu/Gln167Ala) hCNTF (ligand)
chain: B1 chain with V161L, Q167A
B13: (Gln167Ala/Thr169Leu) hCNTF (ligand)
chain: B1 chain with Q167A, T169L
B14: (Gln167Ala/Arg177Leu) hCNTF (ligand)
chain: B1 chain with Q167A, R177L
B15: (Gln163Ser/Gln167His) hCNTF (ligand)
chain: B1 chain with Q163S, Q167H
B16: (Lys160Gln/Gln167Ala) hCNTF (ligand)
chain: B1 chain with K160Q, Q167A
B17: (Gln167Thr) hCNTF (ligand)
chain: B1 chain with Q167T
B18: (Thr169Ile/His174Ala) hCNTF (ligand)
chain: B1 chain with T169I, H174A
notes: also called (Thr169Ile/His174Ala) hCNTP
B19: (Gln167Ala/His174Ala) hCNTF (ligand)
chain: B1 chain with Q167A, H174A
B20: (Ser166Gly/Gln167Ala) hCNTF (ligand)
chain: B1 chain with S166G, Q167A
B21: (Gln167Ala/Thr169Leu/Phe178Ile) hCNTF (ligand)
chain: B1 chain with Q167A, T169L, F178I
B22: (Gln63Arg/Ser166Asp/Gln167His) hCNTF (ligand)
chain: B1 chain with Q63R, S166D, Q167H
B23: (Gln167Ala/Thr169Ser) hCNTF (ligand)
chain: B1 chain with Q167A, T169S
B24: (Ser166Asp/Gln167Ala/Thr169Leu) hCNTF (ligand)
chain: B1 chain with S166D, Q167A, T169L
B25: (Ser166Asp/Gln167Ala) hCNTF (ligand)
chain: B1 chain with S166D, Q167A
B26: (Lys160Gln/Gln167Thr) hCNTF (ligand)
chain: B1 chain with K160Q, Q167T
B27: (Gln167Ala) hCNTF (ligand)
chain: B1 chain with Q167A
B28: (Phe152Ala/Ser166Asp/Gln167His) hCNTF (ligand)
chain: B1 chain with F152A, S166D, Q167H

Biological target: T1, CNTF receptor-α (CNTFRα)
Experiment: solid phase binding assay on CNTFRα
Description: The relative binding affinities to CNTF receptor-α (CNTFRα) of hCNTF and different hCNTF variants were determined by solid phase binding assay as previously described (10). […] These variants, like DH-CNTF, have increased utility for treatment of obesity and associated diseases, such as diabetes.

Row | Binder | Relative Binding (hCNTF = 1)
1 | B1 | 1.1 relative (hCNTF = 1)
2 | B2 | 12.4 relative (hCNTF = 1)
3 | B3 | 8.8 relative (hCNTF = 1)
4 | B4 | 8.1 relative (hCNTF = 1)
5 | B5 | 30 relative (hCNTF = 1)
6 | B6 | 22.8 relative (hCNTF = 1)
7 | B7 | 2 relative (hCNTF = 1)
8 | B8 | 9.6 relative (hCNTF = 1)
9 | B9 | 3.3 relative (hCNTF = 1)
10 | B10 | 13.1 relative (hCNTF = 1)
11 | B11 | 51 relative (hCNTF = 1)
12 | B12 | 8.8 relative (hCNTF = 1)
13 | B13 | 9.6 relative (hCNTF = 1)
14 | B14 | 11.7 relative (hCNTF = 1)
15 | B15 | 4.1 relative (hCNTF = 1)
16 | B16 | 11.7 relative (hCNTF = 1)
17 | B17 | 11.8 relative (hCNTF = 1)
18 | B18 | 0.07 relative (hCNTF = 1)
19 | B19 | 3.6 relative (hCNTF = 1)
20 | B20 | 7.5 relative (hCNTF = 1)
21 | B21 | 8.4 relative (hCNTF = 1)
22 | B22 | 66 relative (hCNTF = 1)
23 | B23 | 6.9 relative (hCNTF = 1)
24 | B24 | 21 relative (hCNTF = 1)
25 | B25 | 13.5 relative (hCNTF = 1)
26 | B26 | 3.1 relative (hCNTF = 1)
27 | B27 | 9 relative (hCNTF = 1)
28 | B28 | 32 relative (hCNTF = 1)
